How the values were obtained:
cyno TREM-1-His protein = molecular target: T1, cyno TREM-1-His protein (cynomolgus monkey, UniProt A0A2K5VHG8 21-204); experiment: BLI (Octet HTX), antibody captured on anti-human Fc sensor, cyno TREM-1-His as analyte, 1:1 model
T1 construct: extracellular domain; Soluble analyte of the Octet assay; not shown: His tag
T1 sequence: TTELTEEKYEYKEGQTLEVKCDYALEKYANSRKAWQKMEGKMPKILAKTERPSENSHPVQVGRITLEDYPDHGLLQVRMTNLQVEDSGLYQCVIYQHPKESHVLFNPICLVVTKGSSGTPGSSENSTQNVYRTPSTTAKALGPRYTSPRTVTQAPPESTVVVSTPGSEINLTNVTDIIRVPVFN
Protocol: Briefly, TREM-1 hybridoma supernatants normalized to 10 μg/mL in DMEM null media were prepared by diluting 1:10 in OCTET® assay buffer (10 mM Tris, 0.1% Triton X-100, 150 mM NaCl, 1 mM CaCl₂), 0.1 mg/mL BSA, at pH 7.6) to a final test concentration of 1 μg/mL. Amine reactive second-generation AR2G Biosensors (Molecular Devices) were pre-incubated in 200 μL nanopore water for a minimum of 10 minutes at room temperature before use. The AR2G Biosensors were then activated for 5 minutes in a solution of 20 mM EDC (1-Ethyl-3-[3-dimethylaminopropyl]carbodiimide hydrochloride) (ForteBio) pre-mixed with 10 mM NHS (N-hydroxysulfosuccinimide) (ForteBio) in nanopore water. An in-house generated mouse anti-human Fc monoclonal antibody was coupled to the AR2G Biosensors at 10 μg/mL in 10 mM sodium acetate buffer at pH 5 for 5 minutes, quenched with 1M ethanolamine at pH 8.5 for 5 minutes, and then used to capture antibody from solution. The TREM-1 test antibodies were loaded onto the Biosensors for 5 minutes, and baseline measurements were taken for 1 minute. […] The association of recombinant human TREM-1 with the antibody-loaded sensor was measured for 5 minutes, followed by dissociation in OCTET® buffer for 10 minutes. Biosensors were then regenerated with 10 mM glycine at pH 1.7, reloaded with the same TREM-1 antibodies on the same sensors for 5 minutes, and the same method was used to measure association and dissociation of cyno TREM-1-His protein. Data was referenced using a 0 nM analyte reference sensor. Kinetic analysis was performed using a 1:1 Langmuir model with mass transfer in Genedata Screener software.

cyno TREM-1 = molecular target: T2, cyno TREM-1 (cynomolgus monkey, UniProt A0A2K5VHG8 21-233); experiment: cell-based or functional assay
T2 sequence: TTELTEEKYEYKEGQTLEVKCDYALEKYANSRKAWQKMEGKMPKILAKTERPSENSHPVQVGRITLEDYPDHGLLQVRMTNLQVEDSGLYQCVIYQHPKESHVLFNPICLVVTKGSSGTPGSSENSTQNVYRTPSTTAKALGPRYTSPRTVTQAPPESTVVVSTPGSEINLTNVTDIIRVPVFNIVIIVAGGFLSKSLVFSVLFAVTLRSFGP

B1: 44A5 (antibody, V domains shown)
VH: EVQLLESGGGLVQPGGSLRLSCAASGFTFSTYAMNWVRQAPGKGLEWVSTVSGSGRPTYYADSVKGRFTISRDNSKNTLYLQMNSLRAEDTAVYYCAKAYYSNYLFDYWGQGTLVTVSS
VL: EIVMTQSPAILSVSPGERATLSCRASQSVSSNLAWYQQKPGQAPRLLIYGASTRATGVPARFSGGGSGTDFTLTISSLQSEDFAVYYCQHCKTWPPLTFGGGTKVDLK
Kd (cyno TREM-1-His protein): 2.02 nM
Ab IC50-Cyno PBMC (Trial 1), TNFα release induced by cyno PGLYRP1/PGN (cyno TREM-1): 57.9 pM
Ab IC50-Cyno PBMC (Trial 2), TNFα release induced by cyno PGLYRP1/PGN (cyno TREM-1): 9.1 pM

B2: 30H2 (antibody, V domains shown)
VH: EVQVLESGGGLVQPGESLRLSCTASGFTFNAYAMSWVRQAPGKGLEWVSTISGSGSTTYYADSVKGRFTISRDNSKNTLDLQMNSLRAADTAVYYCAKVAGSNFFFDHWGQGTLVTVSS
VL: EIVMTQSPATLSVSPGERATLSCRASQSINSNLAWYQQKPGQAPRLLIYGAYTRATGIPDRFSGSGSGTEFTLTISSLQSEDFAVYYCQEFIMWPPWTFGLGTQVEIK
notes: also called 19330
Kd (cyno TREM-1-His protein): 5.7 nM
Ab IC50-Cyno PBMC (Trial 1), TNFα release induced by cyno PGLYRP1/PGN (cyno TREM-1): 3770 pM

B3: 46H7 (antibody, V domains shown)
VH: EVQLLESGGGMVQPGGSLRLSCAVSGFTFSRYAMSWVRQAPGKGLEWVSEMRGSSGSTYYADSVKGRFTISRDNSKNTLYLQMNSLRVEDTAIYYCAKEFSSNSLFDYWGQGTLVTVSS
VL: EIVMTQSPATLSVSPGERATLSCRASQSVNSNLAWYQQKPGRAPRLLIYGASTRATGIPARFSGSGSGTEFTLTISSLQSEDFAVYYCQQFYNWPPWTFGQGTKVEIK
Ab IC50-Cyno PBMC (Trial 1), TNFα release induced by cyno PGLYRP1/PGN (cyno TREM-1): 95.1 pM
Ab IC50-Cyno PBMC (Trial 2), TNFα release induced by cyno PGLYRP1/PGN (cyno TREM-1): 9.7 pM

B4: 57C10 (antibody, V domains shown)
VH: QVQLVQSGAEVKKPGASVKVSCKASGYTFTRYDINWVRQATGQGLEWMGWLNPNSGNTGQTQKFRGRVTMTRNTSINTAYMELSSLRSEDTAVYYCARGGYTSAWRWYFDLWGRGTLVTVSS
VL: DIQMTQSPSSLSASVGDRVTITCQASQDINNHLNWYQQKPGKAPKLLIYDVSNLETGVPSSFSGSGCGTDFTFTISSLQPEDIATYFCQQYDKLPLTFGGGTKVEIE
Kd (cyno TREM-1-His protein): 1.28 nM
Ab IC50-Cyno PBMC (Trial 1), TNFα release induced by cyno PGLYRP1/PGN (cyno TREM-1): 154 pM
Ab IC50-Cyno PBMC (Trial 2), TNFα release induced by cyno PGLYRP1/PGN (cyno TREM-1): 28.4 pM

B5: 63F8 (antibody, V domains shown)
VH: QVQLVQSGAEVKKPGASVKVSCKASGYTFTSYDINWVRQATGQGLEWMGRMNPKSGNAGYVQNFRGRVTMTRNTSISTAYMELSSLRSEDTAVYYCARGGRTSIWSFVFDYWGQGTLVTVSS
VL: DIQMTQSPSSLSASVGDRVTITCQASQDISKHLNWYQQKPGKAPKLLIYDTSNLETGVPSRFSGSGSGTDFTFTISSLQPEDIATYNCQQYDKLPLTFGGGTKVEIK
Kd (cyno TREM-1-His protein): 0.856 nM
Ab IC50-Cyno PBMC (Trial 1), TNFα release induced by cyno PGLYRP1/PGN (cyno TREM-1): 22.6 pM
Ab IC50-Cyno PBMC (Trial 2), TNFα release induced by cyno PGLYRP1/PGN (cyno TREM-1): 16.1 pM

B6: 61B12 (antibody, V domains shown)
VH: QVQLVQSGAEVTKPGASVKVSCKASGYTFTRYDINWVRQATGQGLEWMGWMNPNSGNSGSVQKFRGRVTMTRNTSITTVYMELSSLRSDDTAVYYCARGGISSSWHWAFDIWGQGTMVTVSS
VL: DIQMTQSPSSLSASVGDRVTITCQASQDINNHLNWYQQKPGKAPKLLIYGAYTLETGVPSRFSGSGSGTDFTFTISSLQPEDIATYYCQQYDKLPLTFGGGTKVEIK
Kd (cyno TREM-1-His protein): 1.27 nM
Ab IC50-Cyno PBMC (Trial 1), TNFα release induced by cyno PGLYRP1/PGN (cyno TREM-1): 46.9 pM
Ab IC50-Cyno PBMC (Trial 2), TNFα release induced by cyno PGLYRP1/PGN (cyno TREM-1): 17.4 pM

B7: 34D1 (antibody, V domains shown)
VH: QVQLVQSGAEVKKPGASVKVSCKASGYTFTRYDINWVRQATGQGLEWMGWMNPNSGNSGSVQKFRGRVTMTRNTSIHIAYMELSSLRSEDTAVYYCARGGYTSSWRWYFDLWGRGTLVTVSS
VL: DIQMTQSPSSLSASVGDRVNITCQASQDIRKHLNWYQQKPGKAPNLLIYDAANLETGVPSRFSGSGSGTAFTFTISSLQPEDIATYYCQHYANLPITFGQGTRLEIK
Kd (cyno TREM-1-His protein): 4.97 nM

B8: 64D7 (antibody, V domains shown)
VH: QVQLVQSGAEVKKPGASVKVSCKASGYTFTSYDINWVRQATGQGLEWMGWMNPNRGNTGYVKKFQGRVTMTRNTSISTAYMELSSLRSEDTAVYYCARRRAVYRSSWEWYFDLWGRGTLVTVSS
VL: DTQMTQSPSSLSASEGDRVTITCQASQDIFNDLNWYQEKPGKAPKLLIYHASNLETGVPSRFSGSGSGTDYTFTISSLQPEDIATYYCQQYGNLPLTFGGGTKVEIK
Kd (cyno TREM-1-His protein): 0.68 nM
Ab IC50-Cyno PBMC (Trial 1), TNFα release induced by cyno PGLYRP1/PGN (cyno TREM-1): 6940 pM
Ab IC50-Cyno PBMC (Trial 2), TNFα release induced by cyno PGLYRP1/PGN (cyno TREM-1): 780 pM

B9: 50A12 (antibody, V domains shown)
VH: EVQLVESGGGLVQPGGSLRLSCAASGFTFSSYWMSWVRQAPGKGLEWVANIKQDGSEEYYVDSVKGRFTISRDNAKNSLFLQMNSLRAEDTAVYYCARDYGDSFDYWGQGTLVTVSS
VL: DIQMTQSPSSVSASVGDRVTITCRASQGIRKWLAWYQQKPGRAPKLLIYAASRLQSGVPSRFSGSGSGTDFTLTISSLRPEDFATYYCLQAHGFPWTFGQGTKVEIK
Kd (cyno TREM-1-His protein): 6.42 nM
Ab IC50-Cyno PBMC (Trial 1), TNFα release induced by cyno PGLYRP1/PGN (cyno TREM-1): 2000 pM

B10: 49A2 (antibody, V domains shown)
VH: EVQLVESGGGLVQPGGSLRLSCAASGFTFSSNWMSWVRQAPGKGLDWMASMKQDGSEIYYVDSVKGRFTISRDNAKNSLHLQMNSLRAEDTAVYYCVRGGWRFESWGQGALVTVSS
VL: EIVMTQSPATLSVSPGERATLSCRASQSVSSNLAWYQQKSGQAPRLLIYGASIRATGIPARVSGSGSGTEFTFTISSLQSEDFAVYYCQQYKNWPLTLGGGTKVEIK
notes: also called 19333
Kd (cyno TREM-1-His protein): 1.87 nM
Ab IC50-Cyno PBMC (Trial 1), TNFα release induced by cyno PGLYRP1/PGN (cyno TREM-1): 732 pM
Ab IC50-Cyno PBMC (Trial 2), TNFα release induced by cyno PGLYRP1/PGN (cyno TREM-1): 266 pM

B11: 61G5 (antibody, V domains shown)
VH: QVQLVQSGAEVKKPGASVKVSCKASGYTFTSYDINWVRQATGQGLEWMGWMNPNSGNSGSVKKFRDRVTMTRNTSISTAYMELSSLRSEDTAVYYCVRLIGYSSAWKWSFQHWGQGTLVTVSS
VL: DIQMTQSPSSLSASVGDRVTITCQASRDISKYLNWYQQKPGKAPKLQIYDASNLETGVPSRFSGSGSGTDFTFTISSLQPEDIATYYCQHYDNIPITFGQGTRLEIK
Kd (cyno TREM-1-His protein): 1.31 nM
Ab IC50-Cyno PBMC (Trial 2), TNFα release induced by cyno PGLYRP1/PGN (cyno TREM-1): 2340 pM

B12: 3E12 (antibody, V domains shown)
VH: QVQLVQSGAEVKKPGASVKVSCKASGYTFNGYYIHWVRQAPGQGLEWMGWLNPNSGGANYAQKFQGWVTMTRDTSISTAYMELSRLTSDDTAVYYCARDQRKTTVTPFEYWGQGTLVTVSS
VL: SYELTQPPSVSVSPGQTASITCSGDKLGERNVCWYQLKPGQSPILVIYQDNKRPSGIPERFSGSKSGNTAILTISGTQAMDEADYYCQAWDRNVVFGGGTKLTVL
Kd (cyno TREM-1-His protein): 1.8 nM

B13: 57F5 (antibody, V domains shown)
VH: EVQLLESGGGLVQPGGSLRLSCAASGFTFSSYAMTWVRQAPGRGLQWVSTISGSGSNTYYADSVKGRFTISRDNSKNTLYLQMSSLRAEDTAVYYCAKEGGSNRYFHHWGQGTLVTISS
VL: DIQMTQSPSSLSASVGDRVTITCRASQSISSNLNWYQQKPGKAPKLLISAASNLQSGVPSRFSGSESGTDFTLTISSLQSEDFATYYCQQSDSLPLTFGGGTKVEIN
Kd (cyno TREM-1-His protein): < 0.29 nM

B14: 66B8 (antibody, V domains shown)
VH: QVQLVQSGAEVKKPGASVKVSCKASGYTFTGYYMHWVRQAPGQGLEWMGWFKPNSGVTNYAQKFQGRVTMSRDTSISTAYMELSSLRSDDTAVYYCARAGYSTSWKDWFDPWGQGTLVTVSS
VL: DIQMTQFPSSVSASVGDRVTITCRASQGISRWLAWYQQKQGKAPKLLIYMVSSLQSGVPSRFSGSGSGTDFTLTISSLQPEDFATYYCQQSHNFPITFGQGTRLDIK
Kd (cyno TREM-1-His protein): 1.64 nM
Ab IC50-Cyno PBMC (Trial 1), TNFα release induced by cyno PGLYRP1/PGN (cyno TREM-1): 114 pM
Ab IC50-Cyno PBMC (Trial 2), TNFα release induced by cyno PGLYRP1/PGN (cyno TREM-1): 23.2 pM
